# ± gives the half width of the 95% confidence interval.
# Experiments:
# [1] = folding stability dG unfold from chymotrypsin proteolysis; higher = more stable
# Method: (§1)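 Folding stability of de novo designed mini-proteins (<80 aa, no Cys; designed by TrROS, TrMRF, ProteinMPNN and the joint model) was measured by cDNA display proteolysis with trypsin and chymotrypsin. Each protease was used at 11 concentrations in a threefold dilution series plus a no-protease condition. K50 was inferred by Bayesian fitting of sequencing counts, and dG unfold was derived against a sequence-predicted unfolded-state K50 (Tsuboyama et al. method). Sequences shown include variable-length N-terminal GS-type padding (SAGGSAGG...) inside a display construct carrying a PA tag. Rows were kept only if the AF2 dimer inter-PAE was >15, to exclude likely homo-oligomers.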
# [2] = folding stability dG unfold (combined trypsin and chymotrypsin); higher = more stable
# Method: as §1
Sequence,folding stability dG unfold [1] [kcal/mol],folding stability dG unfold [2] [kcal/mol]
SAGGATTERTFTFPSSVSPEEAAAAVAAEAPPGLRVDVAPVATRADPSGVTTTTLRARFTDPAAPAAASAGG [r13_12_JUSTAS],0.297 ± 0.12,< -1
SAGGDSLPENVIKIELEFEIETEDGSKIELKLEIYISPDNKIYVKAEATIILPDKPIKIEIDFEFDVSAGGS [r16_563_TrMRF],3.35 ± 0.27,3.59 ± 0.88
SAGGENVIIRYKDPDRFKEAIQDAPGIPPENVKTKPNPNGWNEVTFPNPEALDRLKKAGYPVDKIEPSAGGS [r16_381_TrROS],-0.351 ± 0.38,< -1
SAGGGMSPVGTTTSTSPSGVVTTTTTLEAPPPVVTTTTTTTTPVPPPLPPRPPYGPENRARALARAASAGGS [r16_6_JUSTAS],-0.146 ± 0.39,< -1
SAGGGPPGVVKPFTEETTFTVPLAGGPPVEVKTTTTTYTSADPAKRSLVTTTTTSPQNATTTTVTPLSSAGG [r13_654_JUSTAS],-0.2 ± 0.23,< -1
SAGGGSMVVEKPVALPPDTDVEEVAKEVAEELFPEDEKYKIEVERYPDSVRITVYDPKNGKPVIETVDSAGG [r13_724_JUSTAS],-0.565 ± 0.45,< -1
SAGGIKVKITDEDGEEKTFKVKDINVNKSPNNGMPSLKIKLANGRPWVIMIPPGRPLEPGDEITVRPLSAGG [r13_390_TrROS],-0.371 ± 0.93,-0.452 ± 0.63
SAGGKKKVVIKVEVKNKKTGKTFEKEIVIEIDENETEEQILEKAKELAKKLAEENGLEVKIVEIKPLSAGGS [r8_312_TrROS_Hall],3.84 ± 0.18,4.43 ± 0.25
SAGGKLKEAFEKNGYKAYVHPDSPVVTVEFYKPVKLENGEWKPKKLGTKTIEVDGVDLEKAYEILLKESAGG [r13_924_TrMRF],0.935 ± 0.29,0.402 ± 0.2
SAGGKPGEPVKIKMRGPDGQPMTFPFYAPEPVKIKMNNPGEEHEHTIPPGEPLTFPLPPGDIEVEPVSAGGS [r16_456_TrROS],0.315 ± 0.2,-0.171 ± 0.2
SAGGLEEVAQELEAQGGEVEVRKVGGGSTEITVRLREPEAPRLLEVRLSLPPAGARLQVLSREALPPSAGGS [r16_613_JUSTAS],-0.704 ± 0.51,< -1
SAGGLTTQETVSLTSPTNVALTVLSTSVTLSPSTRTLSYTVQGPDGTVTTETVVTPAPLPELDPSAGSAGGS [r16_132_JUSTAS],0.346 ± 0.15,-0.159 ± 0.15
SAGGMIRRITIYITDPGPSAPATTTTITVDVPPDRPDVPDEEVAQRVAESIAPKTGATATVEKIEEVSAGGS [r8_101_JUSTAS],0.406 ± 0.071,-0.159 ± 0.15
SAGGMKAKATFKIPKTFVDPKNNSPKISESEITIEREFKSEEEAKEFVEKIKEELPPELTELVSLELESAGG [r19_209_JUSTAS],-0.601 ± 0.48,< -1
SAGGMKIIKELYDKLPPEVKYFSVPFHYPTGKVEPVKPSPTLSMFEPFNPETGEVDRFVVYRDKIEPLSAGG [r13_803_TrMRF],0.0804 ± 0.18,-0.229 ± 0.24
SAGGMKKITIPMKVLEEKFGIPKNTSPEELAKKLNPKEKVEVLSVTSEKSENGEENPTVTVLVIPPKESAGG [r13_723_TrMRF],0.0873 ± 0.14,-0.22 ± 0.15
SAGGMKVEDFVLELPTPEGKKILVEAVKVTTDPEAGLISVELKTPDKKEKLTLSPDEYVRGPSPEEFLKSAG [r5_15_JUSTAS],-0.376 ± 0.19,-0.562 ± 0.33
SAGGMPATLEVRLPDGAGAVGVVRADDPDEIIEAARAIPADAPVVLTTDDPAYGRLFLEAGFDVVTLESAGG [r13_476_TrMRF],0.241 ± 0.066,-0.138 ± 0.16
SAGGMTETATTTTTLPDGTVVTTGTTTVTEGSSTTTTTFTTVTTVAPVPPPPYPPAPLPWPEDPVLASAGGS [r8_269_JUSTAS],0.142 ± 0.15,< -1
SAGGMTVTVPFTSEEELEAAIEAAPSSLTTVTTTDPARGLRRTLNVDPATRAVVETEEEAVDPEDPALSAGG [r13_945_JUSTAS],-0.377 ± 0.14,< -1
SAGGPAGEEVPVRITARIYMPDPDGKMHSHEIPIDIPMPVDELKEKLIKEIMDEHGYHITEIDIEPYSAGGS [r16_511_TrROS],-0.432 ± 0.21,-0.711 ± 0.25
SAGGPDPYNLKVEEETYPNPDGGEMKIPKIEIPDGRLKIDMEMRNPGNGKEHEHEITIPVKPGQEIFISAGG [r13_190_TrROS],0.906 ± 0.14,0.0459 ± 0.21
SAGGPEKKILVARDSSDPNLPLEKIKEELEKKGFPPAEVTSAATEPLEKAREKAEKEGNPLIVLPVESAGGS [r16_94_JUSTAS],-0.927 ± 0.32,< -1
SAGGPIKRDPDGKIEIHYNEDNGRWHVKIRDPGKPKKEREFKSPDDANEFAKSFANDGWKIDKVEPYPSAGG [r13_727_TrROS],1.08 ± 0.25,0.834 ± 0.32

Sequence,folding stability dG unfold [1] [kcal/mol],folding stability dG unfold [2] [kcal/mol]
SAGGPISVGEIEHAADNVDNSHQNGDPNEMMELYDEAEEIQDQYEENGDPEVRDEVKKVVERAKRHMGSAGG [r13_137_TrROS],0.364 ± 0.077,-0.423 ± 0.45
SAGGPWHEITVRAKGPPGNTPEQAVDEVADELADNNPDFTVEIQEVEVNPEDGQVEATIRVEDGKIVSAGGS [r8_26_TrROS],-0.0882 ± 0.034,< -1
SAGGSADNENNENQKPKPKPKKKLEVTIPVPLPPGDSLEEAMEQAYNIANHLAQSGKLDEVEISIFSAGGSA [r15_450_TrROS],-0.241 ± 0.4,< -1
SAGGSAEEEEITIKLRITVYNEETGKPVKEIEIEIKVKKGQTLEQILEEAKKLLEEKGYKIVEIEISAGGSA [r15_195_TrROS_Hall],4.42 ± 0.31,4.52 ± 0.46
SAGGSAGGAEKIKKKLEELGFEIVKIEKESENKIKIYVKPDNPEKIKEIKEKISSSEVDEIGNESAGGSAGG [r6_83_TrMRF],0.486 ± 0.16,-0.27 ± 0.17
SAGGSAGGAIAPGEEVEAEVTIVDPLTGKETTAKVTLTVHPTSVTITLPGGKPAVVPAAYVRFGSAGGSAGG [r6_436_TrMRF],-0.176 ± 0.56,-0.535 ± 0.4
SAGGSAGGGGGFRVKAEVKHGGKEYPMEILIDPSEGNINIQMPNGKSITLPLNDVKIDEVEPVNSAGGSAGG [r6_185_TrROS],0.341 ± 0.29,0.101 ± 0.34
SAGGSAGGGMTGATPTPRTVPLPGDRTATVYERPETGELLVELPGRRLRVSPAALAAGEVALEASAGGSAGG [r6_940_JUSTAS],0.113 ± 0.22,< -1
SAGGSAGGGSMDPKVETEEFEEPGREVKREKLPDGLVVTEYTEPDGPKSTVVTDPETGKVTVIGSAGGSAGG [r6_159_JUSTAS],0.653 ± 0.079,0.082 ± 0.15
SAGGSAGGLKPGDTVTLPIEIWIMHMETKKDPNGDPEPRMEPYPYRIPITIPADDLNDGKITLTSAGGSAGG [r6_138_TrROS],0.0398 ± 0.46,< -1
SAGGSAGGLLPDQRVRLRLTRTSPDGEPEEATVELTNIPSSITPSSTLTFPGEGDTWEVEEITTSAGGSAGG [r6_560_TrMRF],-0.184 ± 0.21,< -1
SAGGSAGGMSLEEAVEEAAAAVSPDETAEVVLTVEVSEPLTFPEPPDRLVTRPRTVRVRVRAPASAGGSAGG [r6_543_JUSTAS],0.488 ± 0.11,0.319 ± 0.19
SAGGSAGGMTARKTYEVEVPADDPDALADLAFDLPAGDTVYFRTPGPDLRAVVTDDVPVVEPAGSAGGSAGG [r6_550_TrMRF],0.0243 ± 0.18,< -1
SAGGSAGGMTIPLPGSVEEIQELLGGPIKEYTEEAPGSGTLTLPNGTPITVERESPELLKEVLRSAGGSAGG [r6_19_JUSTAS],-0.0581 ± 0.16,-0.593 ± 0.37
SAGGSAGGMTPEEIRDALAAKLRAADPDVEVRPVRQEGDEVVVVVTRPATGERREVRVPADVPLSAGGSAGG [r6_446_JUSTAS],0.406 ± 0.19,-0.0965 ± 0.18
SAGGSAGGNPDTPVLTRKTSETFNIAPGEVVKFPDSSVVTPTEDGTYTIDKTITYNGPPDKPLTSAGGSAGG [r6_635_JUSTAS],0.345 ± 0.13,-0.279 ± 0.23
SAGGSAGGSAAEPPPPATIEVLVLNEDGYVYRAEIRVNEDGEITIEVEKIPVKPGESLEELSAGGSAGGSAG [r3_437_TrROS_Hall],4 ± 0.23,3.79 ± 0.35
SAGGSAGGSAAPEALPPRLVVPRPVLIVDKAPLEEVEVEELRKAAEEFARAVPDAVVLVDEESAGGSAGGSA [r18_499_TrMRF],0.788 ± 0.12,0.0223 ± 0.23
SAGGSAGGSAGAPSAPRSVPEVRLLNIDIPASADDPESVELARRLARAALENDAVVVINESAGGSAGGSAGG [r11_519_TrMRF],0.826 ± 0.11,0.268 ± 0.11
SAGGSAGGSAGAPVEVVITFESPTSRTTRTFPADLPEAEVERLAAALRAAHPEPVRVEPRSAGGSAGGSAGG [r11_515_JUSTAS],-0.981 ± 0.48,< -1
SAGGSAGGSAGASSLTLEELLKLHPGTVVRKERVELVEGKLVIDLVVEKVDPDTDKLTPESAGGSAGGSAGG [r11_20_JUSTAS],0.893 ± 0.043,0.409 ± 0.14
SAGGSAGGSAGAVTVTVDAAPDPLPDREYVVVTVERTLPSGEVLAESRVFDRAEEALEAASAGGSAGGSAGG [r11_792_TrMRF],0.432 ± 0.14,-0.209 ± 0.26
SAGGSAGGSAGAWTDPDGNPYEVKEATVASLGPENPIVLVRFSENGELRLVPLEQALADLSAGGSAGGSAGG [r17_517_TrMRF],0.558 ± 0.16,-0.0575 ± 0.25

# From the supplement of paper PMC12764529
